Columns and labels:
Assay type in all cases: biochemical
[1] = Hydrolysis of ATEE (esterase activity), followed by titration; details: pH 8.1, 0.05 molar sodium chloride solution
Procedure: Hydrolysis of ATEE at pH 8.1 in 0.05 molar sodium chloride solution followed classical Michaelis-Menten kinetics; kM=1.0 mM and kcat=0.042/sec(corresponding values for chymotrypsin are 0.7 mM; 3.0/sec), showing an activity approximately 1% that of chymotrypsin for this substrate.
Hydrolysis of BTEE and ZTONP were performed as described (Meth. Enzymol. volume XIX, Academic Press, New York, 1970, pp. 38-41). The progress of the reaction was followed spectrophotometrically. Progress of the hydrolysis of ATEE was followed by titration.

[2] = Hydrolysis of ZTONP (esterase activity), followed spectrophotometrically; details: initial turnover number
Procedure: Kinetic studies of purified Chymohelizyme 1 were performed using ATEE, BTEE or ZTONP as the substrate.
The progress of the reaction was followed spectrophotometrically. Progress of the hydrolysis of ATEE was followed by titration.

[3] = test system: monomeric Chymohelizyme 1; assay: Inhibition of substrate hydrolysis by Chymohelizyme 1 by specific chymotrypsin inhibitors
Excerpt: Inclusion of indole at a concentration equal to that of the substrate ZTONP caused approximately 70% inhibition of substrate hydrolysis.

chymotrypsin
Km [1]: 700 µM | kcat [1]: 3.0 s⁻¹ | turnover number [2]: 300 s⁻¹

Cc1ccc(O)cc1 [p-cresol]
inhibition of hydrolysis of substrates by monomeric Chymohelizyme 1 [3]: inhibited

c1ccc2[nH]ccc2c1 [indole]
inhibition of hydrolysis of substrates by monomeric Chymohelizyme 1 [3]: inhibited | inhibition of substrate hydrolysis ([3]; inhibitor at a concentration equal to that of the substrate ZTONP): approximately 70%

From patent US5304631A, “Synthetic helizyme enzymes” (University of Colorado Foundation, Inc., priority 1990, dated 1994)
